Data: US20190119318A1
Where “and” joins values, the source holds several entries; their conditions need not be identical. Equal entries are not always repeated.

Columns and labels:
[1] = target: human polyclonal IgG (Gammanorm) (human); assay: column DBC; base C4; ligand […]
[2] = target: human polyclonal IgG (Gammanorm) (human); assay: column DBC; base A29; ligand 7.3 mg/ml
[3] = target: human polyclonal IgG (Gammanorm) (human); assay: column DBC; base C3; ligand […]; conditions: ligand content 5.9 mg/ml
[4] = target: human polyclonal IgG (Gammanorm) (human); assay: column DBC; base A38; ligand 11.34 mg/ml
[5] = target: human polyclonal IgG (Gammanorm) (human); assay: column DBC; base A39; ligand 10.5 mg/ml
[6] = target: human polyclonal IgG (Gammanorm) (human); assay: column DBC; base A63a; ligand 14.0 mg/ml
[7] = target: human polyclonal IgG (Gammanorm) (human); assay: column DBC; base A18; ligand 8.2 mg/ml
[8] = target: human polyclonal IgG (Gammanorm) (human); assay: SPR; after 200 CIP cycles 0.5 M NaOH
[9] = target: human polyclonal IgG (Gammanorm) (human); assay: column DBC; base A65a; ligand 6.6 mg/ml
[10] = target: human polyclonal IgG (Gammanorm) (human); assay: column DBC; base A33; ligand 9.4 mg/ml
[11] = target: human polyclonal IgG (Gammanorm) (human); assay: column DBC; base C2; ligand […]
[12] = target: human polyclonal IgG (Gammanorm) (human); assay: column DBC; base A32; ligand […]
[13] = target: human polyclonal IgG (Gammanorm) (human); assay: column DBC; ligand 13 mg/ml; before incubation in 1 M NaOH
[14] = target: human polyclonal IgG (Gammanorm) (human); assay: column DBC; base A33; ligand 7.3 mg/ml
[15] = target: human polyclonal IgG (Gammanorm) (human); assay: column DBC; base A39; ligand 10.48 mg/ml
[16] = target: human polyclonal IgG (Gammanorm) (human); assay: column DBC; base H40; ligand […]
[17] = target: human polyclonal IgG (Gammanorm) (human); assay: column DBC; base A40; ligand 11.0 mg/ml
[18] = target: human polyclonal IgG (Gammanorm) (human); assay: column DBC; base A41; ligand 13.0 mg/ml
[19] = target: human polyclonal IgG (Gammanorm) (human); assay: column DBC; base A28; ligand 11.9 mg/ml
[20] = target: human polyclonal IgG (Gammanorm) (human); assay: column DBC; base A62a; ligand 7.5 mg/ml
[21] = target: human polyclonal IgG (Gammanorm) (human); assay: column DBC; base A65a; ligand 6.1 mg/ml
[22] = target: human polyclonal IgG (Gammanorm) (human); assay: column DBC; base A43; ligand 10.51 mg/ml
[23] = target: human polyclonal IgG (Gammanorm) (human); assay: column DBC; base A32; ligand 13.3 mg/ml
[24] = target: human polyclonal IgG (Gammanorm) (human); assay: column DBC; ligand 12 mg/ml; before incubation in 1 M NaOH
[25] = target: human polyclonal IgG (Gammanorm) (human); assay: column DBC; base A62a; ligand 6.4 mg/ml
[26] = target: human polyclonal IgG (Gammanorm) (human); assay: SPR; vs reference Zvar4; 1 M NaOH
[27] = target: human polyclonal IgG (Gammanorm) (human); assay: column DBC; base A38; ligand 7.5 mg/ml
[28] = target: human polyclonal IgG (Gammanorm) (human); assay: column DBC; base A39; ligand 6.96 mg/ml
[29] = target: human polyclonal IgG (Gammanorm) (human); assay: column DBC; base A42; ligand […]
[30] = target: human polyclonal IgG (Gammanorm) (human); assay: column DBC; ligand 16 mg/ml; before incubation in 1 M NaOH
[31] = target: human polyclonal IgG (Gammanorm) (human); assay: column DBC; base C4; ligand 10.1 mg/ml
[32] = target: human polyclonal IgG (Gammanorm) (human); assay: SPR; vs reference Zvar4; 0.5 M NaOH
[33] = target: human polyclonal IgG (Gammanorm) (human); assay: column DBC; base A62a; ligand 14.8 mg/ml
[34] = target: human polyclonal IgG (Gammanorm) (human); assay: column DBC; base A29; ligand 11 mg/ml
[35] = target: human polyclonal IgG (Gammanorm) (human); assay: column DBC; base A18; ligand 13.4 mg/ml
[36] = target: human polyclonal IgG (Gammanorm) (human); assay: column DBC; base A27; ligand […]

With “Zvar(Q9A,N11E,Q40V,A42K,N43A,L44I)4 (designed binder)” the Qb10% 2.4 min [1] was 59 mg/mL, the Qb10% 6 min [1] was 67 mg/mL and the Qb10% 2.4 min [2] was 36.3 mg/mL. It also gave a Qb10% 6 min [2] of 51.8 mg/mL, a Qb10% 2.4 min [3] of 44 mg/mL and a Qb10% 6 min [3] of 52 mg/mL. The Qb10% 2.4 min [4] was 48.1 mg/mL, the Qb10% 6 min [4] was 72.8 mg/mL and the Qb10% 2.4 min [5] was 44 mg/mL. The Qb10% 6 min [5] was 65 mg/mL, the Qb10% 2.4 min [6] was 48 mg/mL and the Qb10% 6 min [6] was 56 mg/mL. The Qb10% 2.4 min [7] was 52 mg/mL, the Qb10% 6 min [7] was 59 mg/mL and the remaining capacity 200 cycles [8] was 74%. For the same substance, the Qb10% 2.4 min [9] was 42 mg/mL, the Qb10% 6 min [9] was 47 mg/mL and the Qb10% 2.4 min [10] was 51 mg/mL. The Qb10% 6 min [10] was 58 mg/mL, the Qb10% 2.4 min [11] was 39 mg/mL and the Qb10% 6 min [11] was 46 mg/mL. For the same substance, the Qb10% 2.4 min [12] was 40 mg/mL, the Qb10% 6 min [12] was 57 mg/mL and the Qb10%, 6 min, before incubation [13] was 79 mg/mL. The Qb10% 2.4 min [14] was 49 mg/mL, the Qb10% 6 min [14] was 56 mg/mL and the Qb10% 2.4 min [15] was 44.4 mg/mL. It also gave a Qb10% 6 min [15] of 64.8 mg/mL, a Qb10% 2.4 min [16] of 47 mg/mL and a Qb10% 6 min [16] of 52 mg/mL. For the same substance, the Qb10% 2.4 min [17] was 55 mg/mL, the Qb10% 6 min [17] was 74 mg/mL and the Qb10% 2.4 min [18] was 35 mg/mL. For the same substance, the Qb10% 6 min [18] was 62.2 mg/mL, the Qb10% 2.4 min [19] was 39.9 mg/mL and 40 mg/mL and the Qb10% 6 min [19] was 63.8 mg/mL and 64 mg/mL. The Qb10% 2.4 min [20] was 47 mg/mL, the Qb10% 6 min [20] was 56 mg/mL and the Qb10% 2.4 min [21] was 40 mg/mL. For the same substance, the Qb10% 6 min [21] was 44 mg/mL, the Qb10% 2.4 min [22] was 31.8 mg/mL and the Qb10% 6 min [22] was 58 mg/mL. The Qb10% 2.4 min [23] was 37 mg/mL, the Qb10% 6 min [23] was 66 mg/mL and the Qb10%, 6 min, before incubation [24] was 78 mg/mL. The Qb10% 2.4 min [25] was 43 mg/mL, the Qb10% 6 min [25] was 45 mg/mL and the capacity relative to ref. 100 cycles [26] was 2.07. The Qb10% 2.4 min [27] was 44 mg/mL, the Qb10% 6 min [27] was 58 mg/mL and the Qb10% 2.4 min [28] was 41.9 mg/mL. The Qb10% 6 min [28] was 54.7 mg/mL, the Qb10% 2.4 min [29] was 32.2 mg/mL and the Qb10% 6 min [29] was 57.8 mg/mL. For the same substance, the Qb10%, 6 min, before incubation [30] was 73 mg/mL, the Qb10% 2.4 min [31] was 55 mg/mL and the Qb10% 6 min [31] was 63 mg/mL. The capacity relative to ref. 100 cycles [32] was 1.34, the capacity relative to ref. 200 cycles [32] was 2.06 and the capacity relative to ref. 300 cycles [32] was 3.56. It also gave a Qb10% 2.4 min [33] of 55 mg/mL, a Qb10% 6 min [33] of 62 mg/mL and a Qb10% 2.4 min [34] of 34.9 mg/mL. The Qb10% 6 min [34] was 64.7 mg/mL, the Qb10% 6 min [35] was 63 mg/mL and the Qb10% 2.4 min [36] was 24.8 mg/mL. The Qb10% 6 min [36] was 55.6 mg/mL.
